Test results: patent publication US10919953 (dated 2021)
Where two headings read alike, the source gives them in different places.

Tests used:
Assay in all cases: SPR
[1] = target: T1, FcgRIIaR (human, UniProt P12318)
T1 chain: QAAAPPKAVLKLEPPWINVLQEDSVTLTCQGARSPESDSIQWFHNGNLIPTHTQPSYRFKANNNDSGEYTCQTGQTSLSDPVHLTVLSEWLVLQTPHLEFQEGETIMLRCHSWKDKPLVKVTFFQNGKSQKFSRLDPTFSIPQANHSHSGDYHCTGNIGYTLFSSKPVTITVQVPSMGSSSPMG

[2] = target: T2, FcgRIIb (human, UniProt P31994)
T2 chain: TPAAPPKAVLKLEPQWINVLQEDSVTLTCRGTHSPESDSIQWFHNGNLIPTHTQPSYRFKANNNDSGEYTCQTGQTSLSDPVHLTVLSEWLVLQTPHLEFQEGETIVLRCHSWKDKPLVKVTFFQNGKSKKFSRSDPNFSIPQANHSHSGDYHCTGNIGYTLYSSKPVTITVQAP

[3] = target: T3, FcgRIa (human, UniProt P12314)
T3 chain: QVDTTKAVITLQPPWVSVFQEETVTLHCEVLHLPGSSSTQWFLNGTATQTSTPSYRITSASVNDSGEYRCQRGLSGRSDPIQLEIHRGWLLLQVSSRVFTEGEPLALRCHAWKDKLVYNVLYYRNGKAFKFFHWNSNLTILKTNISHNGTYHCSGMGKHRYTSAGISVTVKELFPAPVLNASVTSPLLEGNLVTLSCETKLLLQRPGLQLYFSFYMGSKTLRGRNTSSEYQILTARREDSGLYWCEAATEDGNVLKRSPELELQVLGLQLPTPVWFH

[4] = target: T1, FcgRIIaR
[5] = target: T3, FcgRIa
[6] = target: T2, FcgRIIb
[7] = target: T1, FcgRIIaR
[8] = target: T4, FcgRIIIaV (human, UniProt P08637)
T4 sequence (P08637 17-208 F176V): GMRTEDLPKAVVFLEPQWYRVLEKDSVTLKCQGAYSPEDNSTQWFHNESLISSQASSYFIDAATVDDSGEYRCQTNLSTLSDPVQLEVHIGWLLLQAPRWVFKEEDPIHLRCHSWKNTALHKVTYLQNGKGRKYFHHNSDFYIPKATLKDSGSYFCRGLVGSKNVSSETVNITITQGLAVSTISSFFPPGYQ

[9] = target: T4, FcgRIIIaV; remark: listed apart in the source
[10] = target: T3, FcgRIa
[11] = target: T5, FcgRIIaH (human, UniProt P12318)
T5 chain: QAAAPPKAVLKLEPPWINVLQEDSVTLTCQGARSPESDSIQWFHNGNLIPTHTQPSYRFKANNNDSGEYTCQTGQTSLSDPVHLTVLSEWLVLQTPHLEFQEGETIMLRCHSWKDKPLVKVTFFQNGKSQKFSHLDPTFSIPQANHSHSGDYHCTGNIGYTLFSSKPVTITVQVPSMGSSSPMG

[12] = target: T2, FcgRIIb
[13] = target: T2, FcgRIIb
[14] = target: T1, FcgRIIaR
[15] = target: T3, FcgRIa

B1: IL6R-BP471/IL6R-L (antibody)
chain 1: QVQLQESGPGLVKPSETLSLTCAVSGHSISHDHAWSWVRQPPGEGLEWIGFISYSGITNYNPSLQGRVTISRDNSKNTLYLQMNSLRAEDTAVYYCARSLARTTAMDYWGEGTLVTVSSASTKGPSVFPLAPSSKSTSGGTAALGCLVKDYFPEPVTVSWNSGALTSGVHTFPAVLQSSGLYSLSSVVTVPSSSLGTQTYICNVNHKPSNTKVDKKVEPKSCDKTHTCPPCPAPDLLGDDSVFLFPPKPKDTLMISRTPEVTCVVVDVSDEDGEVKFNWYVDGVEVHNAKTKPREEQDNSTYRVVSVLTVLHQDWLNGKEYKCKVSNKALSRPIEKTISKAKGQPREPQVYTLPPSRDELTKNQVSLTCLVKGFYPSDIAVEWESNGQPENNYKTTPPVLDSDGSFFLYSKLTVDKSRWQQGNVFSCSVMHEALHNHYTQESLSLSP
chain 2: not shown
Question: Which results are given for B1?
Answer: Kd [1]: 800 nM; Kd [2]: 35 nM; Kd [3]: 7.3 nM

B2: IL6R-BP230/IL6R-L (antibody)
chain 1: QVQLQESGPGLVKPSETLSLTCAVSGHSISHDHAWSWVRQPPGEGLEWIGFISYSGITNYNPSLQGRVTISRDNSKNTLYLQMNSLRAEDTAVYYCARSLARTTAMDYWGEGTLVTVSSASTKGPSVFPLAPSSKSTSGGTAALGCLVKDYFPEPVTVSWNSGALTSGVHTFPAVLQSSGLYSLSSVVTVPSSSLGTQTYICNVNHKPSNTKVDKKVEPKSCDKTHTCPPCPAPDLLGDDSVFLFPPKPKDTLMISRTPEVTCVVVDVSDEDGEVKFNWYVDGVEVHNAKTKPREEQDNSTYRVVSVLTVLHQDWLNGKEYKCKVSNKALPRPIEKTISKAKGQPREPQVYTLPPSRDELTKNQVSLTCLVKGFYPSDIAVEWESNGQPENNYKTTPPVLDSDGSFFLYSKLTVDKSRWQQGNVFSCSVMHEALHNHYTQESLSLSP
chain 2: not shown
Question: Which results are given for B2?
Answer: Kd [4]: 490 nM; Kd [5]: 10 nM; Kd [6]: 18 nM

B3: IL6R-BP223/IL6R-L (antibody)
chain 1: QVQLQESGPGLVKPSETLSLTCAVSGHSISHDHAWSWVRQPPGEGLEWIGFISYSGITNYNPSLQGRVTISRDNSKNTLYLQMNSLRAEDTAVYYCARSLARTTAMDYWGEGTLVTVSSASTKGPSVFPLAPSSKSTSGGTAALGCLVKDYFPEPVTVSWNSGALTSGVHTFPAVLQSSGLYSLSSVVTVPSSSLGTQTYICNVNHKPSNTKVDKKVEPKSCDKTHTCPPCPAPEYLGDDSVFLFPPKPKDTLMISRTPEVTCVVVDVSDEDGEVKFNWYVDGVEVHNAKTKPREEQYNSTYRVVSVLTVLHQDWLNGKEYKCKVSNAALPRPIEKTISKAKGQPREPQVYTLPPSRDELTKNQVSLTCLVKGFYPSDIAVEWESNGQPENNYKTTPPVLDSDGSFFLYSKLTVDKSRWQQGNVFSCSVMHEALHNHYTQESLSLSP
chain 2: not shown
Question: How did the Kd [7] turn out when B3 was run?
Answer: The Kd was 600 nM.

B4: IL6R-BP253/IL6R-L (antibody)
chain 1: QVQLQESGPGLVKPSETLSLTCAVSGHSISHDHAWSWVRQPPGEGLEWIGFISYSGITNYNPSLQGRVTISRDNSKNTLYLQMNSLRAEDTAVYYCARSLARTTAMDYWGEGTLVTVSSASTKGPSVFPLAPSSKSTSGGTAALGCLVKDYFPEPVTVSWNSGALTSGVHTFPAVLQSSGLYSLSSVVTVPSSSLGTQTYICNVNHKPSNTKVDKKVEPKSCDKTHTCPPCPAPELLGGPSVFLFPPKPKDTLMISRTPEVTCVVVDVEHEDPEVKFNWYVDGVEVHNAKTKPREEQYNSTYRVVSVLTVLHQDWLNGKEYKCKVSNKAFPAPIEKTISKAKGQPREPQVYTLPPSRDELTKNQVSLTCLVKGFYPSDIAVEWESNGQPENNYKTTPPVLDSDGSFFLYSKLTVDKSRWQQGNVFSCSVMHEALHNHYTQESLSLSP
chain 2: not shown
Question: With B4 as the binder, how does the Kd [8] read?
Answer: The Kd was 3600 nM.

Question: What about the Kd [9] of the same binder?
Answer: The Kd was 400 nM.

Question: What about the Kd [10] of the same binder?
Answer: The Kd was 0.067 nM.

Question: And the Kd [11]?
Answer: The Kd was 860 nM.

Question: What about the Kd [12] of the same binder?
Answer: Its Kd is 8.9 nM.

Question: And the Kd [13]?
Answer: Its Kd is 11 nM.

Question: And the Kd [14]?
Answer: The Kd was 2.3 nM.

Question: What about the Kd [15] of the same binder?
Answer: Its Kd is 0.05 nM.
